Data on two molecules can be found in patent publication US20230340091A1 (MOR RESEARCH APPLICATIONS, published 2023).

The test deals with recombinant human alpha-synuclein preformed fibrils (PFF) (human, UniProt P37840 1-140). In words: ELISA on coated alpha-synuclein PFF, Fab in serial dilution. On the technique in general: ELISA stands for enzyme-linked immunosorbent assay.

Method: A standard ELISA assay was performed using alpha-synuclein PFFs as the coating protein.

B1: PMS209 (Fab 2), Fab format (Fab, V domains shown)
VH: QVQLQESGPGLVKPSETLSLTCTVSGGSISSSSYYWGWIRQPPGKGLEWIGSIYYSGSTYYNPSLKSRVTISVDTSKNQFSLKLSSVTAADTAVYYCARLRRYDSSGFFFDYWGQGTLVTVSS
VL: SVVTQPPSVSAAPGQKVTISCSGSSSNIGNNYVSWHQQLPGTAPKLLIYDNDRRPSGIPDRFSGSKSGTSATLAITGLQTGDEADYYCGTWDSSLSGGVFGGGTKVTVLS
Consider B1, for which the binding result was “no binding”.

B2: PMS213 (Fab 6), Fab format (Fab, V domains shown)
VH: QVQLVQSGPGLVKPSETLSLICTVSGGSISSSNYYWGWVRQPPGKGLEWIGTIYYSGTTYYNPSLKSRVTISVDTSKNQFSLELSSVTAADTAVYYCARLGRGSAFDIWGQGTMVTVSS
VL: SVVTQPPSLSAAPGQSITISCSGGGSNIGRNSVSWHRQFPGAAPELLAFDTFRRPSGVPDRFSGSKSGSSATLVITGLQTGDEADYYCGTWDNSLDSGVFGGGTKVTVLR
notes: Fab expressed in E. coli with His and myc tags on the heavy chain
Regarding B2, the binding result was “no binding”.
